Reference: patent US9193965B2, “Acetolactate synthase having 2-ketoisovalerate decarboxylase activity and uses thereof” (The Regents of the University of California, priority 2010, dated 2015)

Substrate: CC(=O)C(=O)O
Experiment: purified protein, by the assay type
Conditions: pH 7.0, 37° C., 0.1 mM TPP, ± standard deviation
Experimental: The wild type AlsS and AlsS variants were synthesized from a His-tag plasmid in E. coli strain BL21 Star™ (DE3) (Invitrogen (Carlsbad, Calif.)) followed by purification with Ni-nitrilotriacetic acid (NTA) spin columns (Qiagen (Valencia, Calif.)). Protein concentrations were determined by the Bradford assay (Bio-Rad (Hercules, Calif.)).
Als enzyme activity. An enzyme assay for Als activity of AlsS was carried out in 1 ml of morpholinepropanesulfonic acid (MOPS) buffer (pH 7.0) containing 80 nM AlsS, 100 mM MOPS (pH 7.0), 1 mM MgCl2, 0.1 mM TPP, 10 mM acetate, and various concentrations of pyruvate at 37° C. for 10 min. The reaction was terminated by acidification of the solution with 0.1 ml of 50% H2SO4. The mixture was incubated for an additional 25 min at 37° C. to allow for the acid hydrolysis of the acetolactate to acetoin. […] One unit of enzyme activity was defined as the amount of enzyme that converts 1 μmol of substrate into product in 1 minute under these conditions. The Km values for pyruvate and the Vmax were extrapolated after nonlinear regression of the experimental points with the Gauss-Newton method using Matlab.

B1: Bacillus subtilis acetolactate synthase AlsS, wild type (Q at residue 487), SEQ ID NO: 2 (Bacillus subtilis subsp. subtilis str. 168) (protein)
chain: VLTKATKEQKSLVKNRGAELVVDCLVEQGVTHVFGIPGAKIDAVFDALQDKGPEIIVARHEQNAAFMAQAVGRLTGKPGVVLVTSGPGASNLATGLLTANTEGDPVVALAGNVIRADRLKRTHQSLDNAALFQPITKYSVEVQDVKNIPEAVTNAFRIASAGQAGAAFVSFPQDVVNEVTNTKNVRAVAAPKLGPAADDAISAAIAKIQTAKLPVVLVGMKGGRPEAIKAVRKLLKKVQLPFVETYQAAGTLSRDLEDQYFGRIGLFRNQPGDLLLEQADVVLTIGYDPIEYDPKFWNINGDRTIIHLDEIIADIDHAYQPDLELIGDIPSTINHIEHDAVKVEFAEREQKILSDLKQYMHEGEQVPADWKSDRAHPLEIVKELRNAVDDHVTVTCDIGSHAIWMSRYFRSYEPLTLMISNGMQTLGVALPWAIGASLVKPGEKVVSVSGDGGFLFSAMELETAVRLKAPIVHIVWNDSTYDMVAFQQLKKYNRTSAVDFGNIDIVKYAESFGATGLRVESPDQLADVLRQGMNAEGPVIIDVPVDYSDNINLASDKLPKEFGELMKTKAL
Km (other: wild type): 13.6 ± 0.8 mM
kcat (other: wild type): 121 ± 13 s⁻¹

B2: Bacillus subtilis acetolactate synthase AlsS variant Q487G (Bacillus subtilis subsp. subtilis str. 168; Q486G) (protein)
chain: VLTKATKEQKSLVKNRGAELVVDCLVEQGVTHVFGIPGAKIDAVFDALQDKGPEIIVARHEQNAAFMAQAVGRLTGKPGVVLVTSGPGASNLATGLLTANTEGDPVVALAGNVIRADRLKRTHQSLDNAALFQPITKYSVEVQDVKNIPEAVTNAFRIASAGQAGAAFVSFPQDVVNEVTNTKNVRAVAAPKLGPAADDAISAAIAKIQTAKLPVVLVGMKGGRPEAIKAVRKLLKKVQLPFVETYQAAGTLSRDLEDQYFGRIGLFRNQPGDLLLEQADVVLTIGYDPIEYDPKFWNINGDRTIIHLDEIIADIDHAYQPDLELIGDIPSTINHIEHDAVKVEFAEREQKILSDLKQYMHEGEQVPADWKSDRAHPLEIVKELRNAVDDHVTVTCDIGSHAIWMSRYFRSYEPLTLMISNGMQTLGVALPWAIGASLVKPGEKVVSVSGDGGFLFSAMELETAVRLKAPIVHIVWNDSTYDMVAFGQLKKYNRTSAVDFGNIDIVKYAESFGATGLRVESPDQLADVLRQGMNAEGPVIIDVPVDYSDNINLASDKLPKEFGELMKTKAL
Km (other: Q487G): 1.6 ± 0.4 mM
kcat (other: Q487G): 11 ± 5 s⁻¹

B3: Bacillus subtilis acetolactate synthase AlsS variant Q487A, SEQ ID NO: 10 (Bacillus subtilis subsp. subtilis str. 168; Q486A) (protein)
chain: VLTKATKEQKSLVKNRGAELVVDCLVEQGVTHVFGIPGAKIDAVFDALQDKGPEIIVARHEQNAAFMAQAVGRLTGKPGVVLVTSGPGASNLATGLLTANTEGDPVVALAGNVIRADRLKRTHQSLDNAALFQPITKYSVEVQDVKNIPEAVTNAFRIASAGQAGAAFVSFPQDVVNEVTNTKNVRAVAAPKLGPAADDAISAAIAKIQTAKLPVVLVGMKGGRPEAIKAVRKLLKKVQLPFVETYQAAGTLSRDLEDQYFGRIGLFRNQPGDLLLEQADVVLTIGYDPIEYDPKFWNINGDRTIIHLDEIIADIDHAYQPDLELIGDIPSTINHIEHDAVKVEFAEREQKILSDLKQYMHEGEQVPADWKSDRAHPLEIVKELRNAVDDHVTVTCDIGSHAIWMSRYFRSYEPLTLMISNGMQTLGVALPWAIGASLVKPGEKVVSVSGDGGFLFSAMELETAVRLKAPIVHIVWNDSTYDMVAFAQLKKYNRTSAVDFGNIDIVKYAESFGATGLRVESPDQLADVLRQGMNAEGPVIIDVPVDYSDNINLASDKLPKEFGELMKTKAL
Km (other: Q487A): 8.7 ± 0.5 mM
kcat (other: Q487A): 58 ± 8 s⁻¹

B4: Bacillus subtilis acetolactate synthase AlsS variant Q487S (Bacillus subtilis subsp. subtilis str. 168; Q486S) (protein)
chain: VLTKATKEQKSLVKNRGAELVVDCLVEQGVTHVFGIPGAKIDAVFDALQDKGPEIIVARHEQNAAFMAQAVGRLTGKPGVVLVTSGPGASNLATGLLTANTEGDPVVALAGNVIRADRLKRTHQSLDNAALFQPITKYSVEVQDVKNIPEAVTNAFRIASAGQAGAAFVSFPQDVVNEVTNTKNVRAVAAPKLGPAADDAISAAIAKIQTAKLPVVLVGMKGGRPEAIKAVRKLLKKVQLPFVETYQAAGTLSRDLEDQYFGRIGLFRNQPGDLLLEQADVVLTIGYDPIEYDPKFWNINGDRTIIHLDEIIADIDHAYQPDLELIGDIPSTINHIEHDAVKVEFAEREQKILSDLKQYMHEGEQVPADWKSDRAHPLEIVKELRNAVDDHVTVTCDIGSHAIWMSRYFRSYEPLTLMISNGMQTLGVALPWAIGASLVKPGEKVVSVSGDGGFLFSAMELETAVRLKAPIVHIVWNDSTYDMVAFSQLKKYNRTSAVDFGNIDIVKYAESFGATGLRVESPDQLADVLRQGMNAEGPVIIDVPVDYSDNINLASDKLPKEFGELMKTKAL
Km (other: Q487S): 1.1 ± 0.6 mM
kcat (other: Q487S): 11 ± 6 s⁻¹
